Assay results as given in PMC10686484, “Cas9 is mostly orthogonal to human systems of DNA break sensing and repair”.

Assays:
Cas9 = Cas9 (Streptococcus pyogenes, UniProt Q99ZW2 1-1368); assay: EMSA; preformed 1 complex with sgRNA, no Mg2+; reported as apparent Kd (EC50); EMSA: 50 mM Tris-HCl pH 7.5, 100 mM NaCl, 1 mM DTT, 0.1 mg/ml BSA (oligo dsDNA only), 10 mM MgCl2 if indicated (always for plasmid), 4 C, 30 min; 10 nM dsDNA or 10 ng/ul plasmid; conditions: protein: recombinant; label: 5'-32P on DNA2 (target strand); guide + blunt 35 bp duplex
YB1 (1-219) = YB1 (1-219) (human, UniProt P67809 1-219); assay: EMSA; 10 mM Mg2+; several complexes; EMSA: 50 mM Tris-HCl pH 7.5, 100 mM NaCl, 1 mM DTT, 0.1 mg/ml BSA (oligo dsDNA only), 10 mM MgCl2 if indicated (always for plasmid), 4 C, 30 min; 10 nM dsDNA or 10 ng/ul plasmid; conditions: protein: recombinant; label: 5'-32P on DNA2 (target strand); blunt 35 bp
YB1 (1-219), sequence (P67809 1-219): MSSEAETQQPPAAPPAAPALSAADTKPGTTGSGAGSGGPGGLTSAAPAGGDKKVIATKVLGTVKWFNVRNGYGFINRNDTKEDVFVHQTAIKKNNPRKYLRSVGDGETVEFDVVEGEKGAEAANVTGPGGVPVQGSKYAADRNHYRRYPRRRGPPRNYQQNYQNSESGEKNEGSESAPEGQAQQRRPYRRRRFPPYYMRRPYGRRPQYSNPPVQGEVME

RPA [1] = biological target: T1, RPA (human, UniProt P27694;P15927;P35244 1-616;1-270;1-121); assay: EMSA; no Mg2+; reported as Kd; EMSA: 50 mM Tris-HCl pH 7.5, 100 mM NaCl, 1 mM DTT, 0.1 mg/ml BSA (oligo dsDNA only), 10 mM MgCl2 if indicated (always for plasmid), 4 C, 30 min; 10 nM dsDNA or 10 ng/ul plasmid; conditions: protein: recombinant; copies: 1;1;1; label: 5'-32P on DNA2 (target strand); blunt 35 bp
T1 sequence (P27694 whole entry, chain 1 of 3): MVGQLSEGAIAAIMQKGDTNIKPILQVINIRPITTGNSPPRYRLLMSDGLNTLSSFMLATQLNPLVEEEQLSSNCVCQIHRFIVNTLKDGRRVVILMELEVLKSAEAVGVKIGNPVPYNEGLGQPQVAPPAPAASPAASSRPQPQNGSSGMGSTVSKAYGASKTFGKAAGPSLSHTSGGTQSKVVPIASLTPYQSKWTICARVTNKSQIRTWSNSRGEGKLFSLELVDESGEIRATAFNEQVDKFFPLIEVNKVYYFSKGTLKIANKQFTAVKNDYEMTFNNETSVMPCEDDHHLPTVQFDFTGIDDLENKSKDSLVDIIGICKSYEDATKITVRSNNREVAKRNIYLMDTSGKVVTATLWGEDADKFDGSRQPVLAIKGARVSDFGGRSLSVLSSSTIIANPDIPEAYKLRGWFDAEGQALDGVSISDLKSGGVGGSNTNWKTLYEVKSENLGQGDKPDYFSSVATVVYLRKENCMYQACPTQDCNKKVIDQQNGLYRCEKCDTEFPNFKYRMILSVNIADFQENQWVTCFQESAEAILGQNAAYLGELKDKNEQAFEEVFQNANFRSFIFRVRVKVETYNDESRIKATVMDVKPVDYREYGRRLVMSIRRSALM
T1 sequence (P15927 whole entry, chain 2 of 3): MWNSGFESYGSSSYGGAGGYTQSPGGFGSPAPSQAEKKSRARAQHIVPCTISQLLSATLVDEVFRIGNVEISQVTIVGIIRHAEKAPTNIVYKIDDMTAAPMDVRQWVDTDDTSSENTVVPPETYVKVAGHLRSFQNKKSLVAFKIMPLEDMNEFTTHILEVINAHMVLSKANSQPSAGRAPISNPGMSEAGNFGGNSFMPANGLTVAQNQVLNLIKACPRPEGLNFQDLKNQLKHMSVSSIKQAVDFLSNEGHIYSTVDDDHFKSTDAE
T1 sequence (P35244 whole entry, chain 3 of 3): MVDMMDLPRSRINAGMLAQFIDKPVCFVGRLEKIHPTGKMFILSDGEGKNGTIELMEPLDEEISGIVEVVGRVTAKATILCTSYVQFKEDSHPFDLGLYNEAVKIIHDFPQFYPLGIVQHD

RPA [2] = biological target: T1, RPA; assay: EMSA; 10 mM Mg2+; reported as Kd; EMSA: 50 mM Tris-HCl pH 7.5, 100 mM NaCl, 1 mM DTT, 0.1 mg/ml BSA (oligo dsDNA only), 10 mM MgCl2 if indicated (always for plasmid), 4 C, 30 min; 10 nM dsDNA or 10 ng/ul plasmid; conditions: protein: recombinant; copies: 1;1;1; label: 5'-32P on DNA2 (target strand); blunt 35 bp
Ku antigen (Ku70/80) = Ku antigen (Ku70/80) (human, UniProt P12956;P13010 2-609;2-732); assay: EMSA; EMSA: 50 mM Tris-HCl pH 7.5, 100 mM NaCl, 1 mM DTT, 0.1 mg/ml BSA (oligo dsDNA only), 10 mM MgCl2 if indicated (always for plasmid), 4 C, 30 min; 10 nM dsDNA or 10 ng/ul plasmid; conditions: protein: native; copies: 1;1; label: 5'-32P on DNA2 (target strand); blunt 35 bp
Ku antigen (Ku70/80), sequence (P12956 2-609, chain 1 of 2): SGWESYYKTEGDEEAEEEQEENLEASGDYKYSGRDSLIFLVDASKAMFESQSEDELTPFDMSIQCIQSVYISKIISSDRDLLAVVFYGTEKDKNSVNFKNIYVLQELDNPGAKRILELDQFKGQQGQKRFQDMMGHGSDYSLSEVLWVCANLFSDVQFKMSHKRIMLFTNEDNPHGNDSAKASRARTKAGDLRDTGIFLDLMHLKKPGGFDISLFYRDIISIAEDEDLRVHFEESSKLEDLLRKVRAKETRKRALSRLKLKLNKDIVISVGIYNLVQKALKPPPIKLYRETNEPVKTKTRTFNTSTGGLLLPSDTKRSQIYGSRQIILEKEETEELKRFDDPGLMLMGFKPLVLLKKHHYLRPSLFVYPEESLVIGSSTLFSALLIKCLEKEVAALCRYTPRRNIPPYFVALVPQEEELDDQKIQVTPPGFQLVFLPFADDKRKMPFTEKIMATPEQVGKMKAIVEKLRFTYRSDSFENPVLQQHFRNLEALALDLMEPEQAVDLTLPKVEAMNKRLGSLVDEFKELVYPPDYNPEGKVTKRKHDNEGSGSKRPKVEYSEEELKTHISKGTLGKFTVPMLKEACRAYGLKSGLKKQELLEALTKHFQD
Ku antigen (Ku70/80), sequence (P13010 2-732, chain 2 of 2): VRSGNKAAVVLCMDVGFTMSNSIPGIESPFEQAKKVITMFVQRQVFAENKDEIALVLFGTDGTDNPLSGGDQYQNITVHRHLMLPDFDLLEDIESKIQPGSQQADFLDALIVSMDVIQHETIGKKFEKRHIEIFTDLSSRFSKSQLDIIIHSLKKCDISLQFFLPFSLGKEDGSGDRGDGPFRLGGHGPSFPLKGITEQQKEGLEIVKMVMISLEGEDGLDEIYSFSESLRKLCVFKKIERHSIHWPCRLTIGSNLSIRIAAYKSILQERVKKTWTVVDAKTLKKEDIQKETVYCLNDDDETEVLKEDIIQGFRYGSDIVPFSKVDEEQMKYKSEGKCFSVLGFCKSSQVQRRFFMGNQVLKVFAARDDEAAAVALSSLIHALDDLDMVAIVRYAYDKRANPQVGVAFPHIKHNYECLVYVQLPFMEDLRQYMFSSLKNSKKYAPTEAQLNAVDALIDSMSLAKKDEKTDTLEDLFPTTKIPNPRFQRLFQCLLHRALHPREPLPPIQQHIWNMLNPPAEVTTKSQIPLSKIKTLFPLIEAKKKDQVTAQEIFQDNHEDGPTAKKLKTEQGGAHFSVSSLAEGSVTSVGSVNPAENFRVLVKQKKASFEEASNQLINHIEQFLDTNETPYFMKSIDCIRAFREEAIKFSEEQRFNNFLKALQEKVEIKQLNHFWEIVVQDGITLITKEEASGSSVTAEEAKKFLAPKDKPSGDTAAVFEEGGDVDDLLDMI

PARP2 = PARP2 (murine, UniProt O88554 1-559); assay: EMSA; no NAD+, no Mg2+; apparent Kd (EC50), from loss of free DNA; EMSA: 50 mM Tris-HCl pH 7.5, 100 mM NaCl, 1 mM DTT, 0.1 mg/ml BSA (oligo dsDNA only), 10 mM MgCl2 if indicated (always for plasmid), 4 C, 30 min; 10 nM dsDNA or 10 ng/ul plasmid; conditions: protein: recombinant; label: 5'-32P on DNA2 (target strand); blunt 35 bp
PARP2, sequence (O88554 whole entry): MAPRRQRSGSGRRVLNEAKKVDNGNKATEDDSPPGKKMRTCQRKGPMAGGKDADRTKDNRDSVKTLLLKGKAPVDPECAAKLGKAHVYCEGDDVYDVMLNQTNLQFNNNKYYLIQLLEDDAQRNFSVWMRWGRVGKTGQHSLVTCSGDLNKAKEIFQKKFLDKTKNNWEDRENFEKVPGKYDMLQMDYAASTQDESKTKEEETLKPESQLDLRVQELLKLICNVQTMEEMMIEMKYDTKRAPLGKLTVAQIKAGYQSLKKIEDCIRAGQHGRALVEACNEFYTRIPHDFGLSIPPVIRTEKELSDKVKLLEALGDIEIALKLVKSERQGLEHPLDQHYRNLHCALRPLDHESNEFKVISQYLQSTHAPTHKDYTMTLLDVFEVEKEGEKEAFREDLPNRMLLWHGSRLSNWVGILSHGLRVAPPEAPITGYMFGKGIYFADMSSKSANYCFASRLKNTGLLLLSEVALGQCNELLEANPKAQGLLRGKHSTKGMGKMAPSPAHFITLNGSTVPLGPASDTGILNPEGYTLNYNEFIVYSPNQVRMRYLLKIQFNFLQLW

PARP1 = PARP1 (human, UniProt P09874 1-1014); assay: as above; conditions: protein: recombinant; label: 5'-32P on DNA2 (target strand); blunt 35 bp
PARP1, sequence (P09874 whole entry): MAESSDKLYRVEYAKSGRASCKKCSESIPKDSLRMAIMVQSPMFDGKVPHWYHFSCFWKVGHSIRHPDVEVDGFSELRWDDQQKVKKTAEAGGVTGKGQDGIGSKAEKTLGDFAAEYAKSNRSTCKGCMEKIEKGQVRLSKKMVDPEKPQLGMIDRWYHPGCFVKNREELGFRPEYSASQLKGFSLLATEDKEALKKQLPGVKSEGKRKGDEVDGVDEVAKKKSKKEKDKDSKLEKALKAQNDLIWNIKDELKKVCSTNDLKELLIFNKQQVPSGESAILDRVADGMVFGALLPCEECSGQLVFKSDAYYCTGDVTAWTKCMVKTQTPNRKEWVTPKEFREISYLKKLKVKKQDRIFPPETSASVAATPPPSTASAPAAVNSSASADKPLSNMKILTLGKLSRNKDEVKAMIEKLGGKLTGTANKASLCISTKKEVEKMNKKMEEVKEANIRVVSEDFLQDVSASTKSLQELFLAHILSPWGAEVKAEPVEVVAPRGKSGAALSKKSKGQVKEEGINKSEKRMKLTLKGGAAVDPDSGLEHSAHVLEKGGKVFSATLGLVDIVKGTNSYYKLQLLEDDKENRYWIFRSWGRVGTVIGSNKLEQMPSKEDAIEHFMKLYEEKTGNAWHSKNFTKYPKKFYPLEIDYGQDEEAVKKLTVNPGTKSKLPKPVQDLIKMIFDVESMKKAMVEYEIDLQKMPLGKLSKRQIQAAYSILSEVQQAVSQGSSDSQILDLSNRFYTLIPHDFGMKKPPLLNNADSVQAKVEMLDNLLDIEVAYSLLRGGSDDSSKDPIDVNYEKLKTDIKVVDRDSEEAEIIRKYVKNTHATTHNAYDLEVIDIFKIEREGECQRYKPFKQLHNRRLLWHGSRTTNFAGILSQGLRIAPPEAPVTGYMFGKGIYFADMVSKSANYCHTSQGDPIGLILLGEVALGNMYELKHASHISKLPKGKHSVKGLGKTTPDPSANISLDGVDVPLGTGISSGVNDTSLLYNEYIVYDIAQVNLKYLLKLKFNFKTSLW

B1: sgRNA (pLK1) + dsDNA1/2* (mixed)
RNA: GGAUAACUCAAUUUGUAAAAAAGUUUUAGAGCUAGAAAUAGCAAGUUAAAAUAAGGCUAGUCCGUUAUCAACUUGAAAAAGUGGCACCGAGUCGGUGCUUUU
DNA 1: CTGATAACTCAATTTGTAAAAAATGGTACTGAGCA
DNA 2: TGCTCAGTACCATTTTTTACAAATTGAGTTATCAG
- apparent K (half saturation) (Cas9): 7.7 ± 0.4 nM

B2: dsDNA1/2* (dsDNA)
DNA 1: B1 DNA 1
DNA 2: B1 DNA 2
- binding result (YB1 (1-219)): binds
- apparent K (half saturation) (RPA [1]): 90 ± 20 nM
- apparent K (half saturation) (RPA [2]): 125 ± 40 nM
- binding result (Ku antigen (Ku70/80)): binds
- apparent K (half saturation) (PARP2): 200 ± 16 nM
- apparent K (half saturation) (PARP1): 53 ± 5 nM
